Measured values taken from patent publication US20240270846A1 (published 2024).
Where a chain is given by its changes, count along the chain named. Names may count otherwise. Each block holds one binder with its values, some of them ahead of it.

Biological target: T1, CD3 epsilon homodimer protein (UniProt P07766 23-126)
T1 construct: also called CD3 (CD3 epsilon)
Test: SPR (Biacore T200), CD3e homodimer on CM4 chip, antibody as analyte; KD ratio vs unaltered GLS3000;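 note: CD3 epsilon homodimer amine-coupled to the sensor surface, antibodies injected as analyte at 25 °C with HBS-EP+ running buffer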

T1 sequence (P07766 23-126): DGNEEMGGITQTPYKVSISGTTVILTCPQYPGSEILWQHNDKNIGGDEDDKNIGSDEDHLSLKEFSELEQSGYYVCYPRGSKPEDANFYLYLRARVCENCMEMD

KD ratio to GLS3000: 30.9 ratio
B1: CE115HA000/GLS3000 T31D one-arm antibody (antibody, human IgG1, kappa, L234A L235A, N297A, name in Kabat numbering)
heavy: QVQLVESGGGVVQPGRSLRLSCAASGFTFSNAWMHWVRQAPGKGLEWVAQIKAKSNNYATYYAESVKGRFTISRDDSKNSLYLQMNSLKTEDTAVYYCRYVHYGAYYGVDAWGQGTTVTVSSASTKGPSVFPLAPSSKSTSGGTAALGCLVKDYFPEPVTVSWNSGALTSGVHTFPAVLQSSGLYSLSSVVTVPSSSLGTQTYICNVNHKPSNTKVDKKVEPKSCDKTHTCPPCPAPEAAGGPSVFLFPPKPKDTLMISRTPEVTCVVVDVSHEDPEVKFNWYVDGVEVHNAKTKPREEQYASTYRVVSVLTVLHQDWLNGKEYKCKVSNKALPAPIEKTISKAKGQPREPQVYTLPPSRCELTKNQVSLSCAVKGFYPSDIAVEWESNGQPENNYKTTPPVLDSDGSFFLVSKLTVDKSRWQQGNVFSCSVMHEALHNHYTQKSLSLSPDYKDDDDK
chain: EPKSSDKTHTCPPCPAPELLGGPSVFLFPPKPKDTLMISRTPEVTCVVVDVSHEDPEVKFNWYVDGVEVHNAKTKPREEQYNSTYRVVSVLTVLHQDWLNGKEYKCKVSNKALPAPIEKTISKAKGQPREPQVCTLPPSRDELTKNQVSLWCLVKGFYPSDIAVEWESNGQPENNYKTTPPVLDSDGSFFLYSKLTVDKSRWQQGNVFSCSVMHEALHNRYTQKSLSLSP
light: DIVMTQSPLSLPVTPGEPASISCRSSQSLVHSNRNDYLHWYQQKPGQAPRLLIYKVSNRFSGVPDRFSGSGSGTDFTLKISRVEAEDVGVYYCGQGTQVPYTFGQGTKLEIKRTVAAPSVFIFPPSDEQLKSGTASVVCLLNNFYPREAKVQWKVDNALQSGNSQESVTEQDSKDSTYSLSSTLTLSKADYEKHKVYACEVTHQGLSSPVTKSFNRGEC
notes: one-arm IgG1

KD ratio to GLS3000: 1.91 ratio
B2: CE115HA000/GLS3000 T92I one-arm antibody (antibody, human IgG1, kappa, L234A L235A, N297A, name in Kabat numbering)
heavy: B1 heavy
chain: B1 chain
light: B1 light with D36T, T97I
notes: one-arm IgG1

KD ratio to GLS3000: 0.88 ratio
B3: CE115HA000/GLS3000 T31K one-arm antibody (antibody, human IgG1, kappa, L234A L235A, N297A, name in Kabat numbering)
heavy: B1 heavy
chain: B1 chain
light: B1 light with D36K
notes: one-arm IgG1

KD ratio to GLS3000: 2.59 ratio
B4: CE115HA000/GLS3000 V94G one-arm antibody (antibody, human IgG1, kappa, L234A L235A, N297A, name in Kabat numbering)
heavy: B1 heavy
chain: B1 chain
light: B1 light with D36T, V99G
notes: one-arm IgG1

KD ratio to GLS3000: 1.05 ratio
B5: CE115HA000/GLS3000 V94A one-arm antibody (antibody, human IgG1, kappa, L234A L235A, N297A, name in Kabat numbering)
heavy: B1 heavy
chain: B1 chain
light: B1 light with D36T, V99A
notes: one-arm IgG1

KD ratio to GLS3000: 1.61 ratio
B6: CE115HA000/GLS3000 T92L one-arm antibody (antibody, human IgG1, kappa, L234A L235A, N297A, name in Kabat numbering)
heavy: B1 heavy
chain: B1 chain
light: B1 light with D36T, T97L
notes: one-arm IgG1

KD ratio to GLS3000: 1.59 ratio
B7: CE115HA000/GLS3000 T31E one-arm antibody (antibody, human IgG1, kappa, L234A L235A, N297A, name in Kabat numbering)
heavy: B1 heavy
chain: B1 chain
light: B1 light with D36E
notes: one-arm IgG1

KD ratio to GLS3000: 0.88 ratio
B8: CE115HA000/GLS3000 V51E one-arm antibody (antibody, human IgG1, kappa, L234A L235A, N297A, name in Kabat numbering)
heavy: B1 heavy
chain: B1 chain
light: B1 light with D36T, V56E
notes: one-arm IgG1

KD ratio to GLS3000: 0.83 ratio
B9: CE115HA000/GLS3000 V51G one-arm antibody (antibody, human IgG1, kappa, L234A L235A, N297A, name in Kabat numbering)
heavy: B1 heavy
chain: B1 chain
light: B1 light with D36T, V56G
notes: one-arm IgG1

KD ratio to GLS3000: 0.91 ratio
B10: CE115HA000/GLS3000 V94K one-arm antibody (antibody, human IgG1, kappa, L234A L235A, N297A, name in Kabat numbering)
heavy: B1 heavy
chain: B1 chain
light: B1 light with D36T, V99K
notes: one-arm IgG1

KD ratio to GLS3000: 1.5 ratio
B11: CE115HA000/GLS3000 V51D one-arm antibody (antibody, human IgG1, kappa, L234A L235A, N297A, name in Kabat numbering)
heavy: B1 heavy
chain: B1 chain
light: B1 light with D36T, V56D
notes: one-arm IgG1

KD ratio to GLS3000: 4.46 ratio
B12: CE115HA000/GLS3000 T31N one-arm antibody (antibody, human IgG1, kappa, L234A L235A, N297A, name in Kabat numbering)
heavy: B1 heavy
chain: B1 chain
light: B1 light with D36N
notes: one-arm IgG1

KD ratio to GLS3000: 11.2 ratio
B13: CE115HA000/GLS3000 T92D one-arm antibody (antibody, human IgG1, kappa, L234A L235A, N297A, name in Kabat numbering)
heavy: B1 heavy
chain: B1 chain
light: B1 light with D36T, T97D
notes: one-arm IgG1

KD ratio to GLS3000: 1.46 ratio
B14: CE115HA000/GLS3000 V94I one-arm antibody (antibody, human IgG1, kappa, L234A L235A, N297A, name in Kabat numbering)
heavy: B1 heavy
chain: B1 chain
light: B1 light with D36T, V99I
notes: one-arm IgG1

KD ratio to GLS3000: 1.75 ratio
B15: CE115HA000/GLS3000 V94F one-arm antibody (antibody, human IgG1, kappa, L234A L235A, N297A, name in Kabat numbering)
heavy: B1 heavy
chain: B1 chain
light: B1 light with D36T, V99F
notes: one-arm IgG1

KD ratio to GLS3000: 1.18 ratio
B16: CE115HA000/GLS3000 V94E one-arm antibody (antibody, human IgG1, kappa, L234A L235A, N297A, name in Kabat numbering)
heavy: B1 heavy
chain: B1 chain
light: B1 light with D36T, V99E
notes: one-arm IgG1

KD ratio to GLS3000: 0.69 ratio
B17: CE115HA000/GLS3000 V51I one-arm antibody (antibody, human IgG1, kappa, L234A L235A, N297A, name in Kabat numbering)
heavy: B1 heavy
chain: B1 chain
light: B1 light with D36T, V56I
notes: one-arm IgG1

KD ratio to GLS3000: 1.05 ratio
B18: CE115HA000/GLS3000 V94D one-arm antibody (antibody, human IgG1, kappa, L234A L235A, N297A, name in Kabat numbering)
heavy: B1 heavy
chain: B1 chain
light: B1 light with D36T, V99D
notes: one-arm IgG1

KD ratio to GLS3000: 6 ratio
B19: CE115HA000/GLS3000 V51P one-arm antibody (antibody, human IgG1, kappa, L234A L235A, N297A, name in Kabat numbering)
heavy: B1 heavy
chain: B1 chain
light: B1 light with D36T, V56P
notes: one-arm IgG1

KD ratio to GLS3000: 1.1 ratio
B20: CE115HA000/GLS3000 T31I one-arm antibody (antibody, human IgG1, kappa, L234A L235A, N297A, name in Kabat numbering)
heavy: B1 heavy
chain: B1 chain
light: B1 light with D36I
notes: one-arm IgG1

KD ratio to GLS3000: 1.16 ratio
B21: CE115HA000/GLS3000 V94H one-arm antibody (antibody, human IgG1, kappa, L234A L235A, N297A, name in Kabat numbering)
heavy: B1 heavy
chain: B1 chain
light: B1 light with D36T, V99H
notes: one-arm IgG1

KD ratio to GLS3000: 19.6 ratio
B22: CE115HA000/GLS3000 T92E one-arm antibody (antibody, human IgG1, kappa, L234A L235A, N297A, name in Kabat numbering)
heavy: B1 heavy
chain: B1 chain
light: B1 light with D36T, T97E
notes: one-arm IgG1

KD ratio to GLS3000: 1.35 ratio
B23: CE115HA000/GLS3000 T92A one-arm antibody (antibody, human IgG1, kappa, L234A L235A, N297A, name in Kabat numbering)
heavy: B1 heavy
chain: B1 chain
light: B1 light with D36T, T97A
notes: one-arm IgG1

KD ratio to GLS3000: 10.8 ratio
B24: CE115HA000/GLS3000 T31P one-arm antibody (antibody, human IgG1, kappa, L234A L235A, N297A, name in Kabat numbering)
heavy: B1 heavy
chain: B1 chain
light: B1 light with D36P
notes: one-arm IgG1
